The target of assay [1] is T1, MERS-CoV Spike antigen (MERS-CoV, UniProt K9N5Q8 18-1291).
T1 sequence: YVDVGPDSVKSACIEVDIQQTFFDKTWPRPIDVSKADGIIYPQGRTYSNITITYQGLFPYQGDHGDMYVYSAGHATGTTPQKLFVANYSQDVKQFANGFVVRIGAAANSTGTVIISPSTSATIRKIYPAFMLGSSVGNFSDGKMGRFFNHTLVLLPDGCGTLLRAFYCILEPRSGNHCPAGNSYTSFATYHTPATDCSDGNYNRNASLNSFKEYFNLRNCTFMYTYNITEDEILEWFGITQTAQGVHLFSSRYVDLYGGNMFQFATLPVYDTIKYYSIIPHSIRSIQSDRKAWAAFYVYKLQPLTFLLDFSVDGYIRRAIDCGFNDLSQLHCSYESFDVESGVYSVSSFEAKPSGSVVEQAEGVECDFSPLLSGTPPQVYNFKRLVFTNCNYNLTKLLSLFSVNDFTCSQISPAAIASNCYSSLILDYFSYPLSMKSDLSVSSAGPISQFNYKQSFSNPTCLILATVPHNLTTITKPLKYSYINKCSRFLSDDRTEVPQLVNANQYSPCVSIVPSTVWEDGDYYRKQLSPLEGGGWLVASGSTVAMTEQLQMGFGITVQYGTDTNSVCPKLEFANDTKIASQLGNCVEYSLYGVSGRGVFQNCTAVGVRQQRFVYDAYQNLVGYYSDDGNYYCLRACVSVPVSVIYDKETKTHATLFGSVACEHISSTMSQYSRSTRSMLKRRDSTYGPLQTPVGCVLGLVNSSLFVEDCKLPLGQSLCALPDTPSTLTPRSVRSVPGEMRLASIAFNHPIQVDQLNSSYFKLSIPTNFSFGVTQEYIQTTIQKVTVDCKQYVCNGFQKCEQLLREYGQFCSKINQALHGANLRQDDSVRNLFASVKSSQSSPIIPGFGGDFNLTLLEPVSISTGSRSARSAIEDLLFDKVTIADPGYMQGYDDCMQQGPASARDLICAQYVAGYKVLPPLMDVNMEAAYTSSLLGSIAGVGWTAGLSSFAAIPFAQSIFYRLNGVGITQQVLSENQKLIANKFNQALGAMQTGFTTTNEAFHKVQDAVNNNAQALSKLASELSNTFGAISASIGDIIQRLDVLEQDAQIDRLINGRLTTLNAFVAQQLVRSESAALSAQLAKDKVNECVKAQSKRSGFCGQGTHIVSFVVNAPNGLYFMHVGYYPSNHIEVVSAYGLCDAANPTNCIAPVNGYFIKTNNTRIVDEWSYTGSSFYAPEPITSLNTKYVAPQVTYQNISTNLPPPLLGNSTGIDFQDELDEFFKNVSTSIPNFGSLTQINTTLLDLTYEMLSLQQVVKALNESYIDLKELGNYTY
The experiment in a line: cell-based or functional assay.

Assay [2] has as its target T2, SARS-CoV-2 Spike antigen (Wuhan, wildtype) (SARS-CoV-2 (Wuhan), UniProt P0DTC2 14-1208). The experiment in a line: cell-based or functional assay.
The target in assay [3] is T3, SARS-CoV-1 Spike antigen (SARS-CoV-1, UniProt P59594 14-1190). The experiment in a line: cell-based or functional assay.
The target in assay [4] is T4, hCoV-229E Spike antigen (human coronavirus 229E, UniProt P15423 16-1110).
T4 sequence: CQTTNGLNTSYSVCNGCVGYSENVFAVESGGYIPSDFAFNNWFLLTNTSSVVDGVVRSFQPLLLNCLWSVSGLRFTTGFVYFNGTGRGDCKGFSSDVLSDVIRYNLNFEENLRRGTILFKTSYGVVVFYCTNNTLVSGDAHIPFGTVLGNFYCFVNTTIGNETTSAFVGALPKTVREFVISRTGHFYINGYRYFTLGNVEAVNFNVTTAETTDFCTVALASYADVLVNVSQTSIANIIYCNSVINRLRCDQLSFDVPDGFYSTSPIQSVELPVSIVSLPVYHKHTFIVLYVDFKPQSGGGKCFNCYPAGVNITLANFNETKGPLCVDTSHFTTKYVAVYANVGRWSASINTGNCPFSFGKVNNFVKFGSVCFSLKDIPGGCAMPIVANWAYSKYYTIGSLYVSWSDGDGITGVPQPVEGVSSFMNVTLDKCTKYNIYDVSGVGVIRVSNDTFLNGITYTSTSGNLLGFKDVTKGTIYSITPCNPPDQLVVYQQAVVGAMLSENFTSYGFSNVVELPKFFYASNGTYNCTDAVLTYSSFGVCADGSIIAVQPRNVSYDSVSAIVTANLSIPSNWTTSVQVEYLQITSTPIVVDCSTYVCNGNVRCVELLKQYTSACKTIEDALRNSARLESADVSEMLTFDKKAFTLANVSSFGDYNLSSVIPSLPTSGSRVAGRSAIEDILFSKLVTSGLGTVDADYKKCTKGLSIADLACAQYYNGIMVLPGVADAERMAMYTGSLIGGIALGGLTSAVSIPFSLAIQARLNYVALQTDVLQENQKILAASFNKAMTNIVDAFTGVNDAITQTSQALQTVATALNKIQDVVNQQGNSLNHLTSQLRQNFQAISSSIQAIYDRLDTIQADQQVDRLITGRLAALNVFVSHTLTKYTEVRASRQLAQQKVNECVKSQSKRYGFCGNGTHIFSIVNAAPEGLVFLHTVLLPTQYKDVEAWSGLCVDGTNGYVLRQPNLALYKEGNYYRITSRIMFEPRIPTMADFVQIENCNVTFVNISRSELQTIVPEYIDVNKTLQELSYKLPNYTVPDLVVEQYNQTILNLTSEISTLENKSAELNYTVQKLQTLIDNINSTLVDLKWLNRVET
Put plainly: cell-based or functional assay.

In assay [5] the target is T2, SARS-CoV-2 Spike antigen (Wuhan, …). The experiment in a line: cell-based or functional assay. The source holds these as a separate data set.
Assay [6] deals with T5, human coronavirus NL63 Spike antigen (human coronavirus NL63, UniProt Q6Q1S2 19-1291).
T5 sequence: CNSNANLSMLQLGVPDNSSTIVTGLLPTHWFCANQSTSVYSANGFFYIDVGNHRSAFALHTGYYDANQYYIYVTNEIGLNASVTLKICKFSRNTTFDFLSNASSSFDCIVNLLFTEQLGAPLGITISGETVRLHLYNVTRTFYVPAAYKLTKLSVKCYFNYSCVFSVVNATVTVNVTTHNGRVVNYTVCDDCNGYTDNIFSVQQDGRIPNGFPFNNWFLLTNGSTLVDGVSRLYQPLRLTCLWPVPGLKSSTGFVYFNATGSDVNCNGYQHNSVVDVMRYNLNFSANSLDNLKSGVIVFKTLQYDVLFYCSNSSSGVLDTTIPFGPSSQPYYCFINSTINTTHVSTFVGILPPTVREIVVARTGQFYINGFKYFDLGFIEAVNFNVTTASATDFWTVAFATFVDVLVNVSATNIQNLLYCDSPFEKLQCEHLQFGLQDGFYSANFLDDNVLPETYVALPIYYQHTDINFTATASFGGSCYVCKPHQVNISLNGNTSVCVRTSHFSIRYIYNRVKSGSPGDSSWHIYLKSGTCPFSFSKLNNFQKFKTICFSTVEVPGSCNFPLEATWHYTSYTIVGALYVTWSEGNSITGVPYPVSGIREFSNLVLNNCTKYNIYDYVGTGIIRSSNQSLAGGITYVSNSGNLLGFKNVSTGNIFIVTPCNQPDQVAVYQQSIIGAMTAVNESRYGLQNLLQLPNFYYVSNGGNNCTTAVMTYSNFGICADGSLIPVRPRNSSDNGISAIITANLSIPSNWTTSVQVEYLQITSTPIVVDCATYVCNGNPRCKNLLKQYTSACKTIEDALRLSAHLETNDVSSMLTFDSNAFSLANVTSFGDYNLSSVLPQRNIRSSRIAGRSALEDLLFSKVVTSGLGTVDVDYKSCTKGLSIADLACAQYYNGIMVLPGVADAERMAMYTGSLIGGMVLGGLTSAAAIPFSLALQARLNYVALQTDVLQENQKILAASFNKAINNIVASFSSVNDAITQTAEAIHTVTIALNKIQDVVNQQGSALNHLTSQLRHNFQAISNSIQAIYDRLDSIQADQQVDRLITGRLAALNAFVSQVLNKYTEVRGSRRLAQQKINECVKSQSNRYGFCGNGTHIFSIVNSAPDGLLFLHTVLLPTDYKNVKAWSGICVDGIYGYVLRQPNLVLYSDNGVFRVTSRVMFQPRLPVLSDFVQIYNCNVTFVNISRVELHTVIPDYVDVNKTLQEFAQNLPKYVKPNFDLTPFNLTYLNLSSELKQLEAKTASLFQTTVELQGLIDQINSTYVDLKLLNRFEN
The experiment in a line: cell-based or functional assay.

Assay [7] concerns the target T3, SARS-CoV-1 Spike antigen. Put plainly: cell-based or functional assay. The source holds these as a separate data set.
The target of assay [8] is T5, human coronavirus NL63 Spike antigen. Put plainly: ELISA on coated spike antigen. A general note: ELISA stands for enzyme-linked immunosorbent assay.
Assay [9] deals with T4, hCoV-229E Spike antigen. Put plainly: MSD multiplex binding assay, Coronavirus Panel 3.

Where only a bound is given, the exact number is not on record here.

B1: COV30-14 (antibody, V domains shown)
VH: QVQLVQSGAEVKKPGASVKVSCQTSGYTFTSYYMHWVRQAPGQGLEWMGLITPSGDDTYYAQRFQGRVTMTRDTSTSPTYMELSSLTSEDTAVYYCAKMSRAGGFDVWGQGTLVTVSS
VL: EVVLTQSPGTLSLSPGERATLSCRASQSITGRYLAWYQQKPGQAPRLLMYGESSRVTGIPDRFSGGGSGTDFTLTISRLEPEDFAVYYCQHFASSPPTYTFGQGTKLEIR
notes: also called the antibody according to the invention; the antibody according to invention
In the case of B1, the “Live virus neutralization IC50” value in [1] was 3.68 µg/mL; in assay [2], 25.4 µg/mL; in [3] it was 4.95 µg/mL. Moreover, the “Pseudovirion neutralization IC50” value in [4] and in [6] was over 250 µg/mL throughout. For the same molecule, the “Pseudovirion neutralization IC50 (geometric mean)” value turned out to be 0.211 µg/mL in assay [5] and 5.89 µg/mL in [7]. The binding result is on record as “no binding (tested: range tested 10.0-0.000002 nM)” in assay [8] and “no binding (tested: dilution range starting from 555 ng/ml)” in [9].

(Values after patent publication US20260234223A1 (LEYDEN LABORATORIES B V, published 2026).)
